# Measured values taken from patent US20210253718A1, “FRIZZLED5 PROTEIN-BINDING AGENTS” (Modmab Therapeutics Corporation, priority 2016, published 2021).
# Changes are numbered by the printed parent chain.
# B1: Fab-2915: anti-FZD5 Fab with antibody variable region Fv-2915; CDR SEQ ID NOs: 35, 36, 54, 93, 130, 166 (antibody, V domains shown)
# VH: EVQLVESGGGLVQPGGSLRLSCAASGFNIYYYSMHWVRQAPGKGLEWVASIYSSYGYTSYADSVKGRFTISADTSKNTAYLQMNSLRAEDTAVYYCARGYHYYPYYSGLDYWGQGTLVTVSS
# VL: DIQMTQSPSSLSASVGDRVTITCRASQSVSSAVAWYQQKPGKAPKLLIYSASSLYSGVPSRFSGSRSGTDFTLTISSLQPEDFATYYCQQAYYHSLITFGQGTKVEIK
# B2: Fab-2916: anti-FZD5 Fab with antibody variable region Fv-2916; CDR SEQ ID NOs: 35, 36, 55, 94, 131, 167 (antibody, V domains shown)
# VH: EVQLVESGGGLVQPGGSLRLSCAASGFNISYSSIHWVRQAPGKGLEWVASIYPSYSYTYYADSVKGRFTISADTSKNTAYLQMNSLRAEDTAVYYCARYGYYGMDYWGQGTLVTVSS
# VL: DIQMTQSPSSLSASVGDRVTITCRASQSVSSAVAWYQQKPGKAPKLLIYSASSLYSGVPSRFSGSRSGTDFTLTISSLQPEDFATYYCQQWYHYPYLITFGQGTKVEIK
# B3: Fab-2918: anti-FZD5 Fab with antibody variable region Fv-2918; CDR SEQ ID NOs: 35, 36, 57, 96, 133, 169 (antibody, V domains shown)
# VH: B2 VH with I29L, P53S, Y57S, Y59S, Y99F, Y102W, G103A, M104I
# VL: B1 VL with Y92F, Y93G, H94A, I97F
# B4: Fab-2919: anti-FZD5 Fab with antibody variable region Fv-2919; CDR SEQ ID NOs: 35, 36, 58, 97, 134, 155 (antibody, V domains shown)
# VH: EVQLVESGGGLVQPGGSLRLSCAASGFNISYSYIHWVRQAPGKGLEWVASIYSSSGSTSYADSVKGRFTISADTSKNTAYLQMNSLRAEDTAVYYCARGAIDYWGQGTLVTVSS
# VL: DIQMTQSPSSLSASVGDRVTITCRASQSVSSAVAWYQQKPGKAPKLLIYSASSLYSGVPSRFSGSRSGTDFTLTISSLQPEDFATYYCQQWYSSGHVLITFGQGTKVEIK
# B5: Fab-2920: anti-FZD5 Fab with antibody variable region Fv-2920; CDR SEQ ID NOs: 35, 36, 59, 98, 135, 170 (antibody, V domains shown)
# VH: B4 VH with S32Y, S53P, A100G, I101M
# VL: B1 VL with A91W, Y92F, Y93A, H94G, S95A
# B6: Fab-2921: anti-FZD5 Fab with antibody variable region Fv-2921; CDR SEQ ID NOs: 35, 36, 60, 98, 136, 162 (antibody, V domains shown)
# VH: B4 VH with S32Y, S53P, I101M
# VL: B1 VL with A91W, Y93A, H94G
# B7: Fab-2922: anti-FZD5 Fab with antibody variable region Fv-2922; CDR SEQ ID NOs: 35, 36, 61, 99, 137, 171 (antibody, V domains shown)
# VH: EVQLVESGGGLVQPGGSLRLSCAASGFNIYSSYMHWVRQAPGKGLEWVASISPYSGYTSYADSVKGRFTISADTSKNTAYLQMNSLRAEDTAVYYCARTVRGSKKPYFSGWAMDYWGQGTLVTVSS
# VL: B2 VL with W91S, Y92F, H93V
# System: RWP1 cells
# Experiment: Effect of anti-FZD5 Fabs on proliferation of pancreatic cancer cell lines (percent growth inhibition)
# Type: cell-based, human
# Conditions: Fab 2 μg/ml
row,Molecule,"percent growth inhibition, RWP1 2 μg/ml"
1,B1,48.66%
2,B2,1.68%
3,B3,3.49%
4,B4,7.36%
5,B5,−16.26%
6,B6,−4.47%
7,B7,−6.96%

# System: PATU8988S cells
# Experiment: as above
# Type: cell-based, human
# Conditions: Fab 2 μg/ml
row,Molecule,"percent growth inhibition, PATU8988s 2 μg/ml"
1,B1,−6.43%
2,B2,−25.67%
3,B3,−0.86%
4,B4,−7.74%
5,B5,6.20%
6,B6,−1.56%
7,B7,9.16%

# System: CHO cells not expressing Frizzled CRD
# Experiment: Flow cytometry of anti-FZD5 Fab binding to CHO cells not expressing Frizzled CRD (background)
# Conditions: not given
# Description: The binding of anti-FZD5 Fabs to cell surface-expressed Frizzled protein was further determined for each member of the Frizzled family via flow cytometry and immunofluorescence analysis of a panel of 10 CHO cell lines, each ectopically over-expressing the extracellular cysteine-rich domain (CRD) of a different Frizzled protein family member.
row,Molecule,"Median fluorescence, Frizzled CRD overexpressed on CHO cells: None"
1,B1,4.49
2,B2,4.22
3,B3,3.13
4,B4,3.08
5,B5,3.37
6,B6,3.22
7,B7,3.89

# System: ASPC-1 cells
# Experiment: Effect of anti-FZD5 Fabs on proliferation of pancreatic cancer cell lines (percent growth inhibition)
# Type: cell-based, human
# Conditions: Fab 2 μg/ml
row,Molecule,"percent growth inhibition, ASPC-1 2 μg/ml"
1,B1,5.51%
2,B2,44.03%
3,B3,44.67%
4,B4,30.04%
5,B5,33.66%
6,B6,43.20%
7,B7,14.47%

# Molecular target: T1, FZD10 CRD (Homo sapiens, UniProt Q9ULW2)
# T1 construct: 30-156; GPI anchor signal (C); expressed in transfected cells; host or cells: CHO cells, lentiviral pLenti-puro
# T1 sequence (Q9ULW2 30-156): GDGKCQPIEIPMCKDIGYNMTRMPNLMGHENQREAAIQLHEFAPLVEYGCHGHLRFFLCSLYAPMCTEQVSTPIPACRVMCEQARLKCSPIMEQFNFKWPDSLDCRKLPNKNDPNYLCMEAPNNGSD
# Experiment: Immunofluorescence of anti-FZD5 Fab binding to CHO cells overexpressing Frizzled CRD
# Parameters: key: −: no binding; +: very weak binder; ++: weak binder; +++: good binder; ++++: very good binder
# Conditions: not given
# Method in brief: (§1)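 First, ten CHO cell lines were made, each lentivirally expressing a different human Frizzled CRD tagged with myc and tethered by GPI. Next, anti-FZD5 Fabs were added to each line. Finally, binding was assessed by immunofluorescence and flow cytometry.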
row,Molecule,"Immunofluorescence binding, Frizzled CRD overexpressed on CHO cells: FZD10"
1,B1,−
2,B2,−
3,B3,−
4,B4,−
5,B5,−
6,B6,−
7,B7,−

# Molecular target: T2, FZD4 CRD (Homo sapiens, UniProt Q9ULV1)
# T2 construct: E42-V167; GPI anchor signal (C); expressed in transfected cells; host or cells: CHO cells, lentiviral pLenti-puro
# T2 sequence (Q9ULV1 42-167): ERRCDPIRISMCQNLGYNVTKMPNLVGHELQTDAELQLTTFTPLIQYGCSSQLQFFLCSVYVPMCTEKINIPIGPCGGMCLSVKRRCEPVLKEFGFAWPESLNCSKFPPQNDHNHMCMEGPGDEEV
# Experiment: as above
# Parameters: key: −: no binding; +: very weak binder; ++: weak binder; +++: good binder; ++++: very good binder
# Conditions: not given
# Method in brief: as §1
row,Molecule,"Immunofluorescence binding, Frizzled CRD overexpressed on CHO cells: FZD4"
1,B1,−
2,B2,−
3,B3,−
4,B4,−
5,B5,−
6,B6,−
7,B7,−

# Molecular target: T3, FZD9 CRD (Homo sapiens, UniProt O00144)
# T3 construct: G35-A161; GPI anchor signal (C); expressed in transfected cells; host or cells: CHO cells, lentiviral pLenti-puro
# T3 sequence (O00144 35-161): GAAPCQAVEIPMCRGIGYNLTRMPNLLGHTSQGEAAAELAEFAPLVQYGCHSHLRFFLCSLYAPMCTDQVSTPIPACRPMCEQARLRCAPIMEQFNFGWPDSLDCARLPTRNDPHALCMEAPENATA
# Experiment: as above
# Parameters: key: −: no binding; +: very weak binder; ++: weak binder; +++: good binder; ++++: very good binder
# Conditions: not given
# Method in brief: as §1
row,Molecule,"Immunofluorescence binding, Frizzled CRD overexpressed on CHO cells: FZD9"
1,B1,−
2,B2,−
3,B3,−
4,B4,−
5,B5,−
6,B6,−
7,B7,−

# Molecular target: T4, FZD2 CRD (Homo sapiens, UniProt Q14332)
# T4 construct: D35-P161; GPI anchor signal (C); expressed in transfected cells; host or cells: CHO cells, lentiviral pLenti-puro
# Experiment: as above
# Parameters: key: −: no binding; +: very weak binder; ++: weak binder; +++: good binder; ++++: very good binder
# Conditions: not given
# Method in brief: as §1
row,Molecule,"Immunofluorescence binding, Frizzled CRD overexpressed on CHO cells: FZD2"
1,B1,+++
2,B2,++++
3,B3,−
4,B4,−
5,B5,−
6,B6,−
7,B7,−

# Molecular target: T5, FZD5 CRD (Homo sapiens, UniProt Q13467)
# T5 construct: K29-T156; GPI anchor signal (C); expressed in transfected cells; host or cells: CHO cells, lentiviral pLenti-puro
# T5 sequence (Q13467 29-156): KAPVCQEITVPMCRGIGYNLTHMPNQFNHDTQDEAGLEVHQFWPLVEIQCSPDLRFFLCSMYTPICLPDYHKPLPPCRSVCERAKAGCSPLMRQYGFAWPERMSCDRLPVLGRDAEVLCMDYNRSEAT
# Experiment: as above
# Parameters: key: −: no binding; +: very weak binder; ++: weak binder; +++: good binder; ++++: very good binder
# Conditions: not given
# Method in brief: as §1
row,Molecule,"Immunofluorescence binding, Frizzled CRD overexpressed on CHO cells: FZD5"
1,B1,+++
2,B2,++++
3,B3,++++
4,B4,++++
5,B5,++++
6,B6,++++
7,B7,++++

# Molecular target: T6, FZD6 CRD (Homo sapiens, UniProt O60353)
# T6 construct: S20-P146; GPI anchor signal (C); expressed in transfected cells; host or cells: CHO cells, lentiviral pLenti-puro
# T6 sequence (O60353 20-146): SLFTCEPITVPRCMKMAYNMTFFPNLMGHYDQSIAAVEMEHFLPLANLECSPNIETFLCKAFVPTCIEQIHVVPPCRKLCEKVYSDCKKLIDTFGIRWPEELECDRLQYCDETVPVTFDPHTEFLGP
# Experiment: as above
# Parameters: key: −: no binding; +: very weak binder; ++: weak binder; +++: good binder; ++++: very good binder
# Conditions: not given
# Method in brief: as §1
row,Molecule,"Immunofluorescence binding, Frizzled CRD overexpressed on CHO cells: FZD6"
1,B1,−
2,B2,−
3,B3,−
4,B4,−
5,B5,−
6,B6,−
7,B7,−
